Measured values from patent US20250368745A1 (published 2025).
Like-named read-outs stand apart in the source and are kept apart here.

B1: SA301a HC-G97A (antibody, name in Kabat numbering, V domains shown)
VH: QVQLQESGPGLVKPSQTLSLTCTVSGYSITSDYNSHWIRQPPGKGLEWIGYIHYSGSTNYNPSLKSRVTISRDTSKNQFSLKLSSVTAADTAVYYCARNYASIYVNYFDYWGQGTLVTVSS
VL: EIVLTQSPATLSLSPGERATLSCSASSSVSYMYWYQQKPGQAPRPLIYRTSNLASGIPARFSGSGSGTDFTLTISSLEPEDFAVYYCQQYHSYPTFGGGTKVEIK
notes: IgG1 kappa
B2: SA301a HC-Y100E (antibody, V domains shown)
VH: QVQLQESGPGLVKPSQTLSLTCTVSGYSITSDYNSHWIRQPPGKGLEWIGYIHYSGSTNYNPSLKSRVTISRDTSKNQFSLKLSSVTAADTAVYYCARNYGSIEVNYFDYWGQGTLVTVSS
VL: EIVLTQSPATLSLSPGERATLSCSASSSVSYMYWYQQKPGQAPRPLIYRTSNLASGIPARFSGSGSGTDFTLTISSLEPEDFAVYYCQQYHSYPTFGGGTKVEIK
B3: SA301a HC-Y100K (antibody, V domains shown)
VH: QVQLQESGPGLVKPSQTLSLTCTVSGYSITSDYNSHWIRQPPGKGLEWIGYIHYSGSTNYNPSLKSRVTISRDTSKNQFSLKLSSVTAADTAVYYCARNYGSIKVNYFDYWGQGTLVTVSS
VL: EIVLTQSPATLSLSPGERATLSCSASSSVSYMYWYQQKPGQAPRPLIYRTSNLASGIPARFSGSGSGTDFTLTISSLEPEDFAVYYCQQYHSYPTFGGGTKVEIK
B4: SA301a HC-N95G (antibody, name in Kabat numbering, V domains shown)
VH: QVQLQESGPGLVKPSQTLSLTCTVSGYSITSDYNSHWIRQPPGKGLEWIGYIHYSGSTNYNPSLKSRVTISRDTSKNQFSLKLSSVTAADTAVYYCARGYGSIYVNYFDYWGQGTLVTVSS
VL: EIVLTQSPATLSLSPGERATLSCSASSSVSYMYWYQQKPGQAPRPLIYRTSNLASGIPARFSGSGSGTDFTLTISSLEPEDFAVYYCQQYHSYPTFGGGTKVEIK
notes: IgG1 kappa
B5: SA301a HC-G97Q (antibody, name in Kabat numbering, V domains shown)
VH: QVQLQESGPGLVKPSQTLSLTCTVSGYSITSDYNSHWIRQPPGKGLEWIGYIHYSGSTNYNPSLKSRVTISRDTSKNQFSLKLSSVTAADTAVYYCARNYQSIYVNYFDYWGQGTLVTVSS
VL: EIVLTQSPATLSLSPGERATLSCSASSSVSYMYWYQQKPGQAPRPLIYRTSNLASGIPARFSGSGSGTDFTLTISSLEPEDFAVYYCQQYHSYPTFGGGTKVEIK
notes: IgG1 kappa
B6: SA301a HC-G97M (antibody, name in Kabat numbering, V domains shown)
VH: QVQLQESGPGLVKPSQTLSLTCTVSGYSITSDYNSHWIRQPPGKGLEWIGYIHYSGSTNYNPSLKSRVTISRDTSKNQFSLKLSSVTAADTAVYYCARNYMSIYVNYFDYWGQGTLVTVSS
VL: EIVLTQSPATLSLSPGERATLSCSASSSVSYMYWYQQKPGQAPRPLIYRTSNLASGIPARFSGSGSGTDFTLTISSLEPEDFAVYYCQQYHSYPTFGGGTKVEIK
notes: IgG1 kappa
B7: SA301a HC-N95A (antibody, name in Kabat numbering, V domains shown)
VH: QVQLQESGPGLVKPSQTLSLTCTVSGYSITSDYNSHWIRQPPGKGLEWIGYIHYSGSTNYNPSLKSRVTISRDTSKNQFSLKLSSVTAADTAVYYCARAYGSIYVNYFDYWGQGTLVTVSS
VL: EIVLTQSPATLSLSPGERATLSCSASSSVSYMYWYQQKPGQAPRPLIYRTSNLASGIPARFSGSGSGTDFTLTISSLEPEDFAVYYCQQYHSYPTFGGGTKVEIK
notes: IgG1 kappa
B8: SA301a HC-G97R (antibody, name in Kabat numbering, V domains shown)
VH: QVQLQESGPGLVKPSQTLSLTCTVSGYSITSDYNSHWIRQPPGKGLEWIGYIHYSGSTNYNPSLKSRVTISRDTSKNQFSLKLSSVTAADTAVYYCARNYRSIYVNYFDYWGQGTLVTVSS
VL: EIVLTQSPATLSLSPGERATLSCSASSSVSYMYWYQQKPGQAPRPLIYRTSNLASGIPARFSGSGSGTDFTLTISSLEPEDFAVYYCQQYHSYPTFGGGTKVEIK
notes: IgG1 kappa
B9: SA301a HC-G97V (antibody, name in Kabat numbering, V domains shown)
VH: QVQLQESGPGLVKPSQTLSLTCTVSGYSITSDYNSHWIRQPPGKGLEWIGYIHYSGSTNYNPSLKSRVTISRDTSKNQFSLKLSSVTAADTAVYYCARNYVSIYVNYFDYWGQGTLVTVSS
VL: EIVLTQSPATLSLSPGERATLSCSASSSVSYMYWYQQKPGQAPRPLIYRTSNLASGIPARFSGSGSGTDFTLTISSLEPEDFAVYYCQQYHSYPTFGGGTKVEIK
notes: IgG1 kappa
B10: SA301a HC-G97F (antibody, name in Kabat numbering, V domains shown)
VH: QVQLQESGPGLVKPSQTLSLTCTVSGYSITSDYNSHWIRQPPGKGLEWIGYIHYSGSTNYNPSLKSRVTISRDTSKNQFSLKLSSVTAADTAVYYCARNYFSIYVNYFDYWGQGTLVTVSS
VL: EIVLTQSPATLSLSPGERATLSCSASSSVSYMYWYQQKPGQAPRPLIYRTSNLASGIPARFSGSGSGTDFTLTISSLEPEDFAVYYCQQYHSYPTFGGGTKVEIK
notes: IgG1 kappa
B11: SA301a HC-G97P (antibody, name in Kabat numbering, V domains shown)
VH: QVQLQESGPGLVKPSQTLSLTCTVSGYSITSDYNSHWIRQPPGKGLEWIGYIHYSGSTNYNPSLKSRVTISRDTSKNQFSLKLSSVTAADTAVYYCARNYPSIYVNYFDYWGQGTLVTVSS
VL: EIVLTQSPATLSLSPGERATLSCSASSSVSYMYWYQQKPGQAPRPLIYRTSNLASGIPARFSGSGSGTDFTLTISSLEPEDFAVYYCQQYHSYPTFGGGTKVEIK
notes: IgG1 kappa
B12: SA301a HC-G97I (antibody, name in Kabat numbering, V domains shown)
VH: QVQLQESGPGLVKPSQTLSLTCTVSGYSITSDYNSHWIRQPPGKGLEWIGYIHYSGSTNYNPSLKSRVTISRDTSKNQFSLKLSSVTAADTAVYYCARNYISIYVNYFDYWGQGTLVTVSS
VL: EIVLTQSPATLSLSPGERATLSCSASSSVSYMYWYQQKPGQAPRPLIYRTSNLASGIPARFSGSGSGTDFTLTISSLEPEDFAVYYCQQYHSYPTFGGGTKVEIK
notes: IgG1 kappa
B13: SA301a HC-G97H (antibody, name in Kabat numbering, V domains shown)
VH: QVQLQESGPGLVKPSQTLSLTCTVSGYSITSDYNSHWIRQPPGKGLEWIGYIHYSGSTNYNPSLKSRVTISRDTSKNQFSLKLSSVTAADTAVYYCARNYHSIYVNYFDYWGQGTLVTVSS
VL: EIVLTQSPATLSLSPGERATLSCSASSSVSYMYWYQQKPGQAPRPLIYRTSNLASGIPARFSGSGSGTDFTLTISSLEPEDFAVYYCQQYHSYPTFGGGTKVEIK
notes: IgG1 kappa
B14: SA301a HC-G97T (antibody, name in Kabat numbering, V domains shown)
VH: QVQLQESGPGLVKPSQTLSLTCTVSGYSITSDYNSHWIRQPPGKGLEWIGYIHYSGSTNYNPSLKSRVTISRDTSKNQFSLKLSSVTAADTAVYYCARNYTSIYVNYFDYWGQGTLVTVSS
VL: EIVLTQSPATLSLSPGERATLSCSASSSVSYMYWYQQKPGQAPRPLIYRTSNLASGIPARFSGSGSGTDFTLTISSLEPEDFAVYYCQQYHSYPTFGGGTKVEIK
notes: IgG1 kappa
B15: SA301a HC-G97K (antibody, name in Kabat numbering, V domains shown)
VH: QVQLQESGPGLVKPSQTLSLTCTVSGYSITSDYNSHWIRQPPGKGLEWIGYIHYSGSTNYNPSLKSRVTISRDTSKNQFSLKLSSVTAADTAVYYCARNYKSIYVNYFDYWGQGTLVTVSS
VL: EIVLTQSPATLSLSPGERATLSCSASSSVSYMYWYQQKPGQAPRPLIYRTSNLASGIPARFSGSGSGTDFTLTISSLEPEDFAVYYCQQYHSYPTFGGGTKVEIK
notes: IgG1 kappa
B16: SA301a HC-G97E (antibody, name in Kabat numbering, V domains shown)
VH: QVQLQESGPGLVKPSQTLSLTCTVSGYSITSDYNSHWIRQPPGKGLEWIGYIHYSGSTNYNPSLKSRVTISRDTSKNQFSLKLSSVTAADTAVYYCARNYESIYVNYFDYWGQGTLVTVSS
VL: EIVLTQSPATLSLSPGERATLSCSASSSVSYMYWYQQKPGQAPRPLIYRTSNLASGIPARFSGSGSGTDFTLTISSLEPEDFAVYYCQQYHSYPTFGGGTKVEIK
notes: IgG1 kappa
B17: SA301a HC-G97D (antibody, name in Kabat numbering, V domains shown)
VH: QVQLQESGPGLVKPSQTLSLTCTVSGYSITSDYNSHWIRQPPGKGLEWIGYIHYSGSTNYNPSLKSRVTISRDTSKNQFSLKLSSVTAADTAVYYCARNYDSIYVNYFDYWGQGTLVTVSS
VL: EIVLTQSPATLSLSPGERATLSCSASSSVSYMYWYQQKPGQAPRPLIYRTSNLASGIPARFSGSGSGTDFTLTISSLEPEDFAVYYCQQYHSYPTFGGGTKVEIK
notes: IgG1 kappa
B18: SA301a HC-G97N (antibody, name in Kabat numbering, V domains shown)
VH: QVQLQESGPGLVKPSQTLSLTCTVSGYSITSDYNSHWIRQPPGKGLEWIGYIHYSGSTNYNPSLKSRVTISRDTSKNQFSLKLSSVTAADTAVYYCARNYNSIYVNYFDYWGQGTLVTVSS
VL: EIVLTQSPATLSLSPGERATLSCSASSSVSYMYWYQQKPGQAPRPLIYRTSNLASGIPARFSGSGSGTDFTLTISSLEPEDFAVYYCQQYHSYPTFGGGTKVEIK
notes: IgG1 kappa
B19: SA301a HC-G97L (antibody, name in Kabat numbering, V domains shown)
VH: QVQLQESGPGLVKPSQTLSLTCTVSGYSITSDYNSHWIRQPPGKGLEWIGYIHYSGSTNYNPSLKSRVTISRDTSKNQFSLKLSSVTAADTAVYYCARNYLSIYVNYFDYWGQGTLVTVSS
VL: EIVLTQSPATLSLSPGERATLSCSASSSVSYMYWYQQKPGQAPRPLIYRTSNLASGIPARFSGSGSGTDFTLTISSLEPEDFAVYYCQQYHSYPTFGGGTKVEIK
notes: IgG1 kappa
B20: SA301a HC-N95Q (antibody, name in Kabat numbering, V domains shown)
VH: QVQLQESGPGLVKPSQTLSLTCTVSGYSITSDYNSHWIRQPPGKGLEWIGYIHYSGSTNYNPSLKSRVTISRDTSKNQFSLKLSSVTAADTAVYYCARQYGSIYVNYFDYWGQGTLVTVSS
VL: EIVLTQSPATLSLSPGERATLSCSASSSVSYMYWYQQKPGQAPRPLIYRTSNLASGIPARFSGSGSGTDFTLTISSLEPEDFAVYYCQQYHSYPTFGGGTKVEIK
notes: IgG1 kappa

Experiments:
Experiment in all cases: BLI, apparent KD
human IL-18BP [1] = target: T1, human IL-18BP (human, UniProt O95998 31-194)
T1 construct: UniProt printed as 095998; also called hIL-18BP
T1 sequence: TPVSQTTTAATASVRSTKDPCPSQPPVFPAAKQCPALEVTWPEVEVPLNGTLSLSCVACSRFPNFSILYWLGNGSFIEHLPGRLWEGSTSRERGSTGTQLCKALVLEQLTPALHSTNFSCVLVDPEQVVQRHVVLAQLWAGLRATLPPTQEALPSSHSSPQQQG

cynomolgus IL-18BP = target: T2, cynomolgus IL-18BP (cynomolgus monkey)
T2 construct: also called cyno IL-18BP; cyIL-18BP
T2 chain: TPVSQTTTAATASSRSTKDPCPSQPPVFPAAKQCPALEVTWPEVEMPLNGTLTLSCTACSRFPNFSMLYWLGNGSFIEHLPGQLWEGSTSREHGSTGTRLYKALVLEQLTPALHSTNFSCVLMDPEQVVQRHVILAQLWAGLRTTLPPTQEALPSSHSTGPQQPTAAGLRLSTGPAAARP

human IL-18BP [2] = target: T1, human IL-18BP; remark: listed apart in the source

Binder | Kd (human IL-18BP [1]) [nM] | Kd (cynomolgus IL-18BP) [nM] | Kd (human IL-18BP [2]) [nM]
B1 | 0.44 |  | 
B2 |  | 1.64 | 0.61
B3 |  | 2.18 | 1.49
B4 | 0.17 |  | 
B5 | 7.04 |  | 
B6 | 0.19 |  | 
B7 | 46.1 |  | 
B8 | 25.1 |  | 
B9 | 4.96 |  | 
B10 | 6.32 |  | 
B11 | 1.36 |  | 
B12 | 7.83 |  | 
B13 | 1.57 |  | 
B14 | 0.01 |  | 
B15 | 1.46 |  | 
B16 | 11.6 |  | 
B17 | 0.46 |  | 
B18 | 5.93 |  | 
B19 | 3.7 |  | 
B20 | 5.33 |  | 
